Assay results as given in article PMC11403483 (The Journal of Biological Chemistry, 2024).

Key:
native PSG1 = native PSG1 (human (endogenous in serum of pregnant …, UniProt P11464 35-419)); test: SPR
[1] = biological target: recombinant PSG1 (pregnancy-specific glycoprotein 1) (human, UniProt P11464 35-419, complex N-linked glycans); test: SPR
Sequence of recombinant PSG1 (pregnancy-specific glycoprotein 1) (P11464 35-419): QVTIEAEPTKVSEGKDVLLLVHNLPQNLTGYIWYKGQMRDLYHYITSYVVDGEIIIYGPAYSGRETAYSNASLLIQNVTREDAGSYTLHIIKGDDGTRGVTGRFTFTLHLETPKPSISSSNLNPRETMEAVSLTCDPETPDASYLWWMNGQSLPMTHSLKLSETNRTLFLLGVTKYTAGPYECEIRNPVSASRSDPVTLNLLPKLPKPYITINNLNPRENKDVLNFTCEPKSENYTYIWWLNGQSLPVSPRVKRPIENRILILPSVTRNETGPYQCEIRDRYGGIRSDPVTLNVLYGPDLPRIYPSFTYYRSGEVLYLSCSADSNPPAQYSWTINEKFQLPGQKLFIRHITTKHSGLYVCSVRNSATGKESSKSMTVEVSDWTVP

Sequence of native PSG1 (human (P11464 35-419): as above

B1: recombinant human galectin 9 (natural protein, UniProt O00182-2 1-323, looked up)
chain: MAFSGSQAPYLSPAVPFSGTIQGGLQDGLQITVNGTVLSSSGTRFAVNFQTGFSGNDIAFHFNPRFEDGGYVVCNTRQNGSWGPEERKTHMPFQKGMPFDLCFLVQSSDFKVMVNGILFVQYFHRVPFHRVDTISVNGSVQLSYISFQPPGVWPANPAPITQTVIHTVQSAPGQMFSTPAIPPMMYPHPAYPMPFITTILGGLYPSKSILLSGTVLPSAQRFHINLCSGNHIAFHLNPRFDENAVVRNTQIDNSWGSEERSLPRKMPFVRGQSFSVWILCEAHCLKVAVDGQHLFEYYHRLRNLPTINRLEVGGDIQLTHVQT
Kd (native PSG1): 40.3 nM
koff (native PSG1): 0.0016 s⁻¹
kon (native PSG1): 39000 M⁻¹ s⁻¹
Kd [1]: 21.6 nM
koff [1]: 0.00156 s⁻¹
